Earlier results, collected in paper PMC11155677.

Biological target: Lys115 (UniProt position 115, LSAYPKKLGYP)

## Acetoacetate decarboxylase (AADase) (not stated (Clostridium acetobutylicum inferred))
  pKa: 6
